The values below come from PMC5829300.

The target of this experiment is ^hexYME1^WB (^hexYME1 variant containing an E381Q Walker B mutant) (yeast) (UniProt P32795). The experiment in a line: cryo-EM structure.

For the substance “^hexYME1^WB (^hexYME1 variant containing an E381Q Walker B mutant) (from UniProt P32795 279-712) (enzyme)”, the stoichiometry N (in general, a count of units in the complex or per binding partner) was 6.
